Laboratory results published in US20040265961A1 (published 2004).
Blank lines part the entries; values can stand above or below the molecule they belong to.

Experiments:
[1] = tested on: T1, hKSR-2-FLAG (full-length human KSR-2 with the FLAG epitope at its carboxyl terminus)
T1 sequence: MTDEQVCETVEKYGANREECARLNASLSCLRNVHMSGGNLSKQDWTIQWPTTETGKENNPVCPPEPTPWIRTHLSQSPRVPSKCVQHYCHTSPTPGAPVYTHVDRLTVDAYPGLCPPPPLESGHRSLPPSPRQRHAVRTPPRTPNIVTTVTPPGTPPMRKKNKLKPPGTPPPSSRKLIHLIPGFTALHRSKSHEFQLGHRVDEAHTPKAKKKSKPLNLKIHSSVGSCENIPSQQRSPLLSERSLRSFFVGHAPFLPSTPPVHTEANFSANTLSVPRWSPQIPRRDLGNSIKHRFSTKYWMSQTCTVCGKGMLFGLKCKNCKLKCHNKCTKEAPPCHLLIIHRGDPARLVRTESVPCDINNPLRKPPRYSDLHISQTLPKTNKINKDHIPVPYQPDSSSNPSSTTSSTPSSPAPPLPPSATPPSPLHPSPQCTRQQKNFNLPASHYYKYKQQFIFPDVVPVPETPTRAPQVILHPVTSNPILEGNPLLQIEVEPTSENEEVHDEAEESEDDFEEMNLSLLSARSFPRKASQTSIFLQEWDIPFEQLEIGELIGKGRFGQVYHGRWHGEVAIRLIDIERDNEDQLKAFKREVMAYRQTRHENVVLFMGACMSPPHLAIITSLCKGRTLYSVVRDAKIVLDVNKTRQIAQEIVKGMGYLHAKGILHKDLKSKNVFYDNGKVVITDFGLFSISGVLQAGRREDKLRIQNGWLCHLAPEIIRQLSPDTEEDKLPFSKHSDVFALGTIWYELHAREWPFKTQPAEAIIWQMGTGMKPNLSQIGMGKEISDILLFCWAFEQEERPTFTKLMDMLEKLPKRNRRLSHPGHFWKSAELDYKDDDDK

[2] = biological target: T2, hKSR-2-FLAG (full-length human KSR-2 with the FLAG epitope at its carboxyl terminus) (human, UniProt Q6VAB6 122-950, limits assumed); test: anti-FLAG immunoprecipitation from KSR-2-FLAG-transfected 293T lysate (about 1 mg protein), Western blot with commercial antibodies
T2 construct: Expressed in 293T cells from pcDNA-DEST-40; Tested in cell lysates, or eluted from anti-FLAG beads with FLAG peptide for the kinase assay
T2 sequence: T1 sequence
Experimental: To identify proteins that interact with human KSR-2, 293T cells were transfected with KSR-2-FLAG as described above. Cells transfected with FLAG vector alone served as a control. Cells were lysed as described above 48 h posttransfection. Protein concentrations were determined using the BCA protein assay. Cell lysates containing approximately 1 mg protein were subjected to anti-FLAG antibody immunoprecipitation followed by electrophoresis on a 2D gel resolved in only one dimension. The proteins were then transferred to nitrocellulose membranes and probed with various commercially available antibodies (Cell Signaling Technology, Beverly, Mass.) using the MN20SL Miniblotter (Immunetics, Cambridge, Mass.).

[3] = biological target: T3, hKSR-2-FLAG (full-length human KSR-2 with the FLAG epitope at its carboxyl terminus)
T3 chain: T1 sequence

Molecule: Raf enzyme (Upstate Biotechnology, Inc.)
Raf kinase activity (in vitro kinase assay, 33P phosphorylation of GST-MEK1-His6) [1]: Raf kinase activity was upregulated

binding result [2]: no binding
B1: P.SEK1 (enzyme, UniProt P45985 2-399, looked up)
chain: AAPSPSGGGGSGGGSGSGTPGPVGSPAPGHPAVSSMQGKRKALKLNFANPPFKSTARFTLNPNPTGVQNPHIERLRTHSIESSGKLKISPEQHWDFTAEDLKDLGEIGRGAYGSVNKMVHKPSGQIMAVKRIRSTVDEKEQKQLLMDLDVVMRSSDCPYIVQFYGALFREGDCWICMELMSTSFDKFYKYVYSVLDDVIPEEILGKITLATVKALNHLKENLKIIHRDIKPSNILLDRSGNIKLCDFGISGQLVDSIAKTRDAGCRPYMAPERIDPSASRQGYDVRSDVWSLGITLYELATGRFPYPKWNSVFDQLTQVVKGDPPQLSNSEEREFSPSFINFVNLCLTKDESKRPKYKELLKHPFILMYEERAVEVACYVCKILDQMPATPSSPMYVD
modifications: phosphorylated (sites not given)
notes: Endogenous protein of 293T cells, probed with a commercial antibody; also called phosphorylated SEK1

B2: purified recombinant Cot/Tp12 (protein)
chain: MENLYASEEPAVYEPSLMTMCQDSNQNDERSKSLLLSGQEVPWLSSVRYGTVEDLLAFANHISNTAKHFYGQRPQESGILLNMVITPQNGRYQIDSDVLLIPWKLTYRNIGSDFIPRGAFGKVYLAQDIKTKKRMACKLIPVDQFKPSDVEIQACFRHENIAELYGAVLWGETVHLFMEAGEGGSVLEKLESCGPMREFEIIWVTKHVLKGLDFLHSKKVIHHDIKPSNIVFMSTKAVLVDFGLSVQMTEDVYFPKDLRGTEIYMSPEVILCRGHSTKADIYSLGATLIHMQTGTPPWVKRYPRSAYPSYLYIIHKQAPPLEDIADDCSPGMRELIEASLERNPNHRPRAADLLKHEALNPPREDQPR
Cot/Tp12 kinase activity (in vitro kinase assay, 33P phosphorylation of GST-MEK1-His6) [3]: KSR-2 reduced Cot/Tp12 kinase activity in a dose-dependent manner
